The values below are quoted from earlier work in paper PMC3901638.

For orientation: Kd means the constant that tells how readily two partners part at equilibrium.

This series deals with PEDF-R (Homo sapiens) (UniProt Q96AD5). Briefly: Surface Plasmon Resonance.
Chain of UniProt Q96AD5 (Q96AD5 whole entry): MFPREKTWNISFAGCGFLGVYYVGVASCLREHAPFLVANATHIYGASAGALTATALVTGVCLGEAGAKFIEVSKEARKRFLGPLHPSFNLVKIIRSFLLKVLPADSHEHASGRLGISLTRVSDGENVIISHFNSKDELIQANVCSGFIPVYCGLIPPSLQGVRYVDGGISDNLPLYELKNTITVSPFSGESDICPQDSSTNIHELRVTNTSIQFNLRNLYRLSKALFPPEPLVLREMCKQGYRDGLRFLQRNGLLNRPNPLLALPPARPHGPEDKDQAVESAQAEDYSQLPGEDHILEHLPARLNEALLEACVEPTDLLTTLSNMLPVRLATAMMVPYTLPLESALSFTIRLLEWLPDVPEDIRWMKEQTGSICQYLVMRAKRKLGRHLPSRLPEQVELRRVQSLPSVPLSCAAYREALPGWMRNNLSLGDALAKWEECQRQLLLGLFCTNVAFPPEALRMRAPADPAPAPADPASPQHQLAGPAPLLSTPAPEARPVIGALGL

As for PEDF (from UniProt P36955), the Kd was 3 nM.
